Substitutions are numbered along the chain they refer to.
How the values were obtained:
[1] = biological target: T1, CD123 on MOLM-13 cells (UniProt P26951 19-378, limits assumed); experiment: flow cytometry on CD123-expressing MOLM-13 cells, MFI (geo mean) against concentration (nM)
T1 construct: whole, on cells; also called CD123-expressing MOLM-13 cells
Target sequence in this assay (P26951 19-378 limits assumed): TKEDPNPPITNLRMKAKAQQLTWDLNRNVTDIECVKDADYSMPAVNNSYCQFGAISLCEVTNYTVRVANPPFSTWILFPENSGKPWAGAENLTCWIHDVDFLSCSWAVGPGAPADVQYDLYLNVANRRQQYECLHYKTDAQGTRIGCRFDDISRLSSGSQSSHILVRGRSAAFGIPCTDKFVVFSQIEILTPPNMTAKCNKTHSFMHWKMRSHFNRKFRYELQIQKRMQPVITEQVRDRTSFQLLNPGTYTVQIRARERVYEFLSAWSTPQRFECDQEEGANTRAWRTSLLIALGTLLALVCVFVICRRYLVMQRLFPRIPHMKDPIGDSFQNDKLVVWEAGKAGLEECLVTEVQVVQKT

[2] = biological target: cyno CD3 (cynomolgus, UniProt Q95LI5 22-117); experiment: SPR (BIAcore), diabody 6.25-400 nM over immobilized cyno CD3, 1:1 Langmuir fit
Method: (§1) In additional studies the ability of CD123-binding diabodies: CD123-WT, CD123-M13, CD123-M17 and CD123-M19 to bind to human CD3 and cynomolgus CD3 was also evaluated using BIAcore®. […] Table 15B presents the calculated kₐ, kd and KD.

[3] = biological target: T2, soluble human CD3 (human, UniProt P07766 23-126); experiment: SPR (BIAcore), diabody 6.25-400 nM over immobilized human CD3, 1:1 Langmuir fit
Method: as §1

[4] = biological target: T3, CD8 on CD8+ T-cells (UniProt P01732 22-235; P10966 22-210); experiment: flow cytometry on CD8+ T-cells, MFI (geo mean) against concentration (nM); CD123-WT is the diabody comparator without a CD8-Binding Domain
T3 construct: whole, on cells; also called CD8 expressing CD8+ T-cells

[5] = biological target: T4, soluble human CD123, His-tagged (human, UniProt P26951 19-305); experiment: SPR (BIAcore), diabody over His-tagged CD123 captured on anti-PentaHis, 1:1 fit
T4 construct: Captured on an anti-PentaHis surface; also called soluble CD123; not shown: His tag
T4 sequence (looked up): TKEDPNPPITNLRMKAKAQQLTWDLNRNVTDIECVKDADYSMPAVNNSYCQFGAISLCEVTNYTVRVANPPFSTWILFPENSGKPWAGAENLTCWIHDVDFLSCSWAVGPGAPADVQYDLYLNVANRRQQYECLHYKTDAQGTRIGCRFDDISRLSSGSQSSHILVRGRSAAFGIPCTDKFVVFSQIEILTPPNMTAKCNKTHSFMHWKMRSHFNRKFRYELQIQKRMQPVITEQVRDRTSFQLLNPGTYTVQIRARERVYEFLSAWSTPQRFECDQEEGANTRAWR
Method: (§2) The ability of the CD123-binding diabodies: CD123-WT, CD123-M1, CD123-M2 and CD123-M18 to bind to human CD3 and CD123 was also evaluated using BIAcore®. […] Table 14 presents the calculated kₐ, kd and KD from these studies.

[6] = biological target: T2, soluble human CD3; experiment: SPR (BIAcore), diabody over immobilized soluble human CD3, 1:1 fit
Method: as §2

[7] = biological target: T1, CD123 on MOLM-13 cells; experiment: Flow cytometry on MOLM-13 cells; detection with biotinylated anti-E/K-coil antibody and streptavidin-PE
Method: (§3) FIG. 9A-9B show the ability of DART-B-type diabodies to bind to Disease Antigens. […] Binding was detected using biotinylated antibody specific for the diabodies' E/K coils and streptavidin-phycoerythrin (PE).
(§4) The ability of such diabodies to bind to their respective Disease Antigen (i.e., CD123 or 5T4) on the surface of MOLM-13 leukemia (CD123) or A-498 kidney carcinoma (5T4) target cancer cells was assessed using FACS. Briefly, cells were incubated with the diabody molecules (in FACS buffer containing 10% human AB serum) in microtiter plates. The cells were washed and incubated with biotin-conjugated mouse anti-EK-coil antibody that recognizes the E-coil/K-coil (EK) Heterodimer-Promoting Domain of the diabodies mixed with streptavidin-phycoerythrin.

[8] = biological target: T2, soluble human CD3; experiment: SPR (BIAcore), diabody over immobilized human CD3
Method: as §2
The ability of the 5T4-binding diabodies: 5T4-WT, 5T4-M1, 5T4-M2 and 5T4-M18 to bind to CD3 was also evaluated using BIAcore®, as described above. Table 15A presents the calculated kₐ, kd and KD.

[9] = biological target: T5, 5T4 on A498 cells (UniProt Q13641 32-420, limits assumed); experiment: Flow cytometry on A498 cells; detection with biotinylated anti-E/K-coil antibody and streptavidin-PE
T5 construct: whole, on cells; also called 5T4-expressing A498 cells; A-498 kidney carcinoma (5T4)
T5 sequence (looked up): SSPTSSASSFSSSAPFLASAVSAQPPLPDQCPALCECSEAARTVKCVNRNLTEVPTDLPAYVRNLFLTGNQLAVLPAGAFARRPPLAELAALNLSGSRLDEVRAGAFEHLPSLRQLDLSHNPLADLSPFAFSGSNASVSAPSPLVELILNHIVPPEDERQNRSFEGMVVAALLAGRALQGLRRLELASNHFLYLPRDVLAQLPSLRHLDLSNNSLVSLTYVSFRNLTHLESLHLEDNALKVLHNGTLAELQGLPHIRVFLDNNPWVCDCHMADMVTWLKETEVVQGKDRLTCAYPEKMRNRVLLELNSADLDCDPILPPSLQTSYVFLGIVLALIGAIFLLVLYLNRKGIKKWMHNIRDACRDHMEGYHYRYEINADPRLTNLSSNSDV
Method: as §3, §4

Chain of cyno CD3 (Q95LI5 22-117): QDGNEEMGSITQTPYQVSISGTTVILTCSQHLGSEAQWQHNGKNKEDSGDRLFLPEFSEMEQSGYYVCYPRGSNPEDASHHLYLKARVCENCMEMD
T2 sequence (P07766 23-126): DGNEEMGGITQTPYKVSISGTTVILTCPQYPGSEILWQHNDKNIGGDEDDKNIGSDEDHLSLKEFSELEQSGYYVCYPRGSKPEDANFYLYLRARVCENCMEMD
T3 sequence (P01732 22-235, chain 1 of 2): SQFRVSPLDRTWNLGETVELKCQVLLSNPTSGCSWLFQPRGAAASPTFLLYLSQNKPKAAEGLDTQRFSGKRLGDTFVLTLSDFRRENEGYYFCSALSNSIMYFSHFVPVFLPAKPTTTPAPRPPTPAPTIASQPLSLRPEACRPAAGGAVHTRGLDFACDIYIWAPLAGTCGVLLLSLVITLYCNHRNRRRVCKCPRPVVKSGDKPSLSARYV
T3 sequence (P10966 22-210, chain 2 of 2): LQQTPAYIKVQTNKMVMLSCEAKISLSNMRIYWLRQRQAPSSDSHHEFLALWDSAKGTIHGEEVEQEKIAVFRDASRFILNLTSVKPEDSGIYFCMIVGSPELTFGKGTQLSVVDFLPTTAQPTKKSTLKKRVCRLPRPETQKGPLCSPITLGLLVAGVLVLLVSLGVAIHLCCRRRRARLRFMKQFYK

B1: T-CD123-WT (other)
chain 1: DFVMTQSPDSLAVSLGERVTMSCKSSQSLLNSGNQKNYLTWYQQKPGQPPKLLIYWASTRESGVPDRFSGSGSGTDFTLTISSLQAEDVAVYYCQNDYSYPYTFGQGTKLEIKGGGSGGGGEVQLVESGGGLVQPGGSLRLSCAASGFTFSTYAMNWVRQAPGKGLEWVGRIRSKYNNYATYYADSVKDRFTISRDDSKNSLYLQMNSLKTEDTAVYYCVRHGNFGNSYVSWFAYWGQGTLVTVSSGGCGGGEVAALEKEVAALEKEVAALEKEVAALEKGGGDKTHTCPPCPAPEAAGGPSVFLFPPKPKDTLMISRTPEVTCVVVDVSHEDPEVKFNWYVDGVEVHNAKTKPREEQYNSTYRVVSVLTVLHQDWLNGKEYKCKVSNKALPAPIEKTISKAKGQPREPQVYTLPPSREEMTKNQVSLWCLVKGFYPSDIAVEWESNGQPENNYKTTPPVLDSDGSFFLYSKLTVDKSRWQQGNVFSCSVMHEALHNHYTQKSLSLSPGK
chain 2: QAVVTQEPSLTVSPGGTVTLTCRSSTGAVTTSNYANWVQQKPGQAPRGLIGGTNKRAPWTPARFSGSLLGGKAALTITGAQAEDEADYYCALWYSNLWVFGGGTKLTVLGGGGSGGGGEVQLVQSGAELKKPGASVKVSCKASGYTFTDYYMKWVRQAPGQGLEWIGDIIPSNGATFYNQKFKGRVTITVDKSTSTAYMELSSLRSEDTAVYYCARSHLLRASWFAYWGQGTLVTVSSGGCGGGKVAALKEKVAALKEKVAALKEKVAALKE
heavy: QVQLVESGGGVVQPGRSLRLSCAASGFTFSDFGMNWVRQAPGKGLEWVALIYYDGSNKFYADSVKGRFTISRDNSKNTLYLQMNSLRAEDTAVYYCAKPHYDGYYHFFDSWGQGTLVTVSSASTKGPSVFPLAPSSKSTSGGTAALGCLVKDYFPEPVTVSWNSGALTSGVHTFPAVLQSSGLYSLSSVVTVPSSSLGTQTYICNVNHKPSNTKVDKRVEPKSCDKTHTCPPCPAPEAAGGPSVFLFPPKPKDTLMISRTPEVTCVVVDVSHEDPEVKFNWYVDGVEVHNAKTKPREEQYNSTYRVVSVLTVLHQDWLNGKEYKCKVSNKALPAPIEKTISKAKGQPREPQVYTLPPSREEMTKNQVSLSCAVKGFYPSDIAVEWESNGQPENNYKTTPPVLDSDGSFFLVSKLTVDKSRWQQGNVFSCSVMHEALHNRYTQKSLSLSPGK
light: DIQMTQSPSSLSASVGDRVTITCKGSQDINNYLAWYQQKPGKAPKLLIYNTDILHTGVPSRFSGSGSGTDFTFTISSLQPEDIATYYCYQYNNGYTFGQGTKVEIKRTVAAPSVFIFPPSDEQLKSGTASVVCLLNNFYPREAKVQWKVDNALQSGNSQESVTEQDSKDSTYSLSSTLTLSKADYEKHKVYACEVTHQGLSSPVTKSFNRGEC
notes: Four-chain trivalent CD123 x CD3 x CD8 molecule with Fc; also called CD123 mAb 1 x CD3 mAb 1 x TRX2 TRIVALENT-type molecule
binding result [1]: binds

B2: CD123-M19 (bispecific antibody)
chain 1: B1 chain 1 with G223K, F225I
chain 2: B1 chain 2
chain 3: not shown
notes: Three-chain diabody with Fc; also called CD123 x CD3 mAb 1 M19 DART-B-type diabody
Kd [2]: 227 nM
Kd [3]: 218 nM

B3: CD123-M13 (bispecific antibody)
chain 1: B1 chain 1 with Y235E
chain 2: B1 chain 2
chain 3: not shown
notes: Three-chain diabody with Fc; also called CD123 x CD3 mAb 1 M13 DART-B-type diabody
Kd [2]: 580 nM
Kd [3]: 458 nM

B4: CD123-WT (bispecific antibody)
chain 1: B1 chain 1
chain 2: B1 chain 2
chain 3: not shown
notes: Three-chain diabody with Fc; also called CD123 x CD3 mAb 1 DART-B-type diabody
binding result [4]: no binding (tested: 100 nM)
Kd [2]: 39 nM
Kd [5]: 2 nM
Kd [3]: 52 nM
Kd [6]: 67 nM

B5: CD123-M17 (bispecific antibody)
chain 1: B1 chain 1 with Y153T
chain 2: B1 chain 2
chain 3: not shown
notes: Three-chain diabody with Fc; also called CD123 x CD3 mAb 1 M17 DART-B-type diabody
Kd [2]: 329 nM
Kd [3]: 290 nM

B6: T-CD123-M1 (other)
chain 1: B1 chain 1 with S231T
chain 2: B1 chain 2
heavy: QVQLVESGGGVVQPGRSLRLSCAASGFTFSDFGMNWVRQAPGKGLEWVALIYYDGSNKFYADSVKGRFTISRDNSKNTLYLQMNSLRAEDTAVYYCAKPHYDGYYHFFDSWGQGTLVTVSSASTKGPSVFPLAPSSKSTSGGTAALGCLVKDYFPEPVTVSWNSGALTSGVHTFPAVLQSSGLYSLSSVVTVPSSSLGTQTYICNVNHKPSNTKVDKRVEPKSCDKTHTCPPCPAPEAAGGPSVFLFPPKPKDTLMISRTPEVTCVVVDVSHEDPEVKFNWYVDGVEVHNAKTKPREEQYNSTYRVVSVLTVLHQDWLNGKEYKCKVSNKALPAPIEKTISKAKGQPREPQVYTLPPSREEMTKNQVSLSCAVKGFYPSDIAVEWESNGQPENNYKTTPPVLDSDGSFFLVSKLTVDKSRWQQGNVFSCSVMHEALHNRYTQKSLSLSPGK
light: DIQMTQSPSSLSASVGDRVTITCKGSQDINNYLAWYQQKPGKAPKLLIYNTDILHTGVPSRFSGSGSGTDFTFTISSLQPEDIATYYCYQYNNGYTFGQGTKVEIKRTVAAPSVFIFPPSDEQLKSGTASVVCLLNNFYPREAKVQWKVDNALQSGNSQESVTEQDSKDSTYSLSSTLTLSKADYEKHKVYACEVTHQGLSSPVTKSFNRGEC
notes: Four-chain trivalent CD123 x CD3 x CD8 molecule with Fc; also called CD123 mAb 1 x CD3 mAb 1 M1 x TRX2 TRIVALENT-type molecule
binding result [1]: binds

B7: CD123-M1 (bispecific antibody)
chain 1: B1 chain 1 with S231T
chain 2: B1 chain 2
chain 3: not shown
notes: Three-chain diabody with Fc; also called CD123 x CD3 mAb 1 M1 DART-B-type diabody
Kd [5]: 1.2 nM
EC50 (read off the curve) [7]: ~2 nM
Kd [6]: 842 nM

B8: CD123-M2 (bispecific antibody)
chain 1: B1 chain 1 with G223K, S231T
chain 2: B1 chain 2
chain 3: not shown
notes: Three-chain diabody with Fc; also called CD123 x CD3 mAb 1 M2 DART-B-type diabody
Kd [5]: 1.1 nM
Kd [6]: 108 nM

B9: T-CD123-M18 (other)
chain 1: B1 chain 1 with A154G
chain 2: B1 chain 2
heavy: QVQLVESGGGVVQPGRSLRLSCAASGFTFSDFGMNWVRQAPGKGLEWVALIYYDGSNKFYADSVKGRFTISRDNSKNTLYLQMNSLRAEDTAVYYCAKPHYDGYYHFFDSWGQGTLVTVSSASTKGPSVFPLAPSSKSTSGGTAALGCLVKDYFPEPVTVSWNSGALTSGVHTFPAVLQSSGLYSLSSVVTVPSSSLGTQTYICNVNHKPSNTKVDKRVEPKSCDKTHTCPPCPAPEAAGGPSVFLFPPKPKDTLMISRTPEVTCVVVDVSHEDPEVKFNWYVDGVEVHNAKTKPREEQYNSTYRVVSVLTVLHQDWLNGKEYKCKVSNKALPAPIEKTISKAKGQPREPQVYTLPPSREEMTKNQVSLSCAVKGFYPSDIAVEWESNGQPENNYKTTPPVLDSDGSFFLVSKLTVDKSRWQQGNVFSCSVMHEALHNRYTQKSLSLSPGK
light: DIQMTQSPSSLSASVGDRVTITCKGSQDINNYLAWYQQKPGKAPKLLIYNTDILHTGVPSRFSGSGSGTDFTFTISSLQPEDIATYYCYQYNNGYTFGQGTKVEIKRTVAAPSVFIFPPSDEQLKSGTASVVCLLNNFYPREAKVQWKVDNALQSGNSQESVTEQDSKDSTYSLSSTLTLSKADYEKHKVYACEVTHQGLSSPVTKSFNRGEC
notes: Four-chain trivalent CD123 x CD3 x CD8 molecule with Fc; also called CD123 mAb 1 x CD3 mAb 1 M18 x TRX2 TRIVALENT-type molecule
binding result [1]: binds

B10: T-CD123-M2 (other)
chain 1: B1 chain 1 with G223K, S231T
chain 2: B1 chain 2
heavy: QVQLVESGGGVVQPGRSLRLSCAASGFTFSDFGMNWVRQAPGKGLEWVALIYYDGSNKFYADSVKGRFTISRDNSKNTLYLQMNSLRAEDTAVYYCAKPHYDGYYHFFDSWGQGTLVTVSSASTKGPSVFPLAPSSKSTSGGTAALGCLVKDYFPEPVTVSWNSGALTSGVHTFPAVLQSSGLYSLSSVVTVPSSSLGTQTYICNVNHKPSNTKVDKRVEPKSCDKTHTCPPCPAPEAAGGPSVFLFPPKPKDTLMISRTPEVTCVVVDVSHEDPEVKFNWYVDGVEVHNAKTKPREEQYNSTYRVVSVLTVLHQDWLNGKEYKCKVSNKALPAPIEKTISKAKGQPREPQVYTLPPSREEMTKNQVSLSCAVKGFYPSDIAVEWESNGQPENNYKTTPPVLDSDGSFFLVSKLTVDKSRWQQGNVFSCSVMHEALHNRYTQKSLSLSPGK
light: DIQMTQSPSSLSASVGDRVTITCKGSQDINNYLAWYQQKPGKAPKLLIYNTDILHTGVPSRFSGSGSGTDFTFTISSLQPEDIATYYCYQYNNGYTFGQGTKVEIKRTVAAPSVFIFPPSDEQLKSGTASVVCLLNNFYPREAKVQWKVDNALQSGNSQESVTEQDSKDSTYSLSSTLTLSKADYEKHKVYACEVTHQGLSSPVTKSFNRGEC
notes: Four-chain trivalent CD123 x CD3 x CD8 molecule with Fc; also called CD123 mAb 1 x CD3 mAb 1 M2 x TRX2 TRIVALENT-type molecule
binding result [1]: binds

B11: CD123-M18 (bispecific antibody)
chain 1: B1 chain 1 with A154G
chain 2: B1 chain 2
chain 3: not shown
notes: Three-chain diabody with Fc; also called CD123 x CD3 mAb 1 M18 DART-B-type diabody
Kd [5]: 2.3 nM
Kd [6]: 593 nM

B12: 5T4-WT (bispecific antibody)
chain 1: DIQMTQSPSSLSASVGDRVTITCRASQGISNYLAWFQQKPGKAPKSLIYRANRLQSGVPSRFSGSGSGTDFTLTISSLQPEDVATYYCLQYDDFPWTFGQGTKLEIKGGGSGGGGEVQLVESGGGLVQPGGSLRLSCAASGFTFSTYAMNWVRQAPGKGLEWVGRIRSKYNNYATYYADSVKGRFTISRDDSKNSLYLQMNSLKTEDTAVYYCVRHGNFGNSYVSWFAYWGQGTLVTVSSGGCGGGEVAALEKEVAALEKEVAALEKEVAALEKGGGDKTHTCPPCPAPEAAGGPSVFLFPPKPKDTLMISRTPEVTCVVVDVSHEDPEVKFNWYVDGVEVHNAKTKPREEQYNSTYRVVSVLTVLHQDWLNGKEYKCKVSNKALPAPIEKTISKAKGQPREPQVYTLPPSREEMTKNQVSLWCLVKGFYPSDIAVEWESNGQPENNYKTTPPVLDSDGSFFLYSKLTVDKSRWQQGNVFSCSVMHEALHNHYTQKSLSLSPGK
chain 2: QAVVTQEPSLTVSPGGTVTLTCRSSTGAVTTSNYANWVQQKPGQAPRGLIGGTNKRAPWTPARFSGSLLGGKAALTITGAQAEDEADYYCALWYSNLWVFGGGTKLTVLGGGGSGGGGQVQLVQSGAEVKKPGASVKVSCKASGYTFTSFWMHWVRQAPGQGLEWMGRIDPNRGGTEYNEKAKSRVTMTADKSTSTAYMELSSLRSEDTAVYYCAGGNPYYPMDYWGQGTTVTVSSGGCGGGKVAALKEKVAALKEKVAALKEKVAALKE
chain 3: not shown
notes: Three-chain diabody with Fc; Kabat position 65 of the CD3 VH is G in this construct; also called 5T4 x CD3 mAb 1 DART-B-type diabody
Kd [8]: 36 nM
koff [8]: 0.0054 s⁻¹
kon [8]: 150000 M⁻¹ s⁻¹
EC50 (read off the curve) [9]: ~1 nM

B13: 5T4-M18 (bispecific antibody)
chain 1: B12 chain 1 with A148G, G183D
chain 2: B12 chain 2
chain 3: not shown
notes: Three-chain diabody with Fc; also called 5T4 x CD3 mAb 1 M18 DART-B-type diabody
Kd [8]: 453 nM
koff [8]: 0.034 s⁻¹
kon [8]: 75000 M⁻¹ s⁻¹
EC50 (read off the curve) [9]: ~1 nM

B14: 5T4-M2 (bispecific antibody)
chain 1: B12 chain 1 with G183D, G217K, S225T
chain 2: B12 chain 2
chain 3: not shown
notes: Three-chain diabody with Fc; also called 5T4 x CD3 mAb 1 M2 DART-B-type diabody
Kd [8]: 118 nM
koff [8]: 0.041 s⁻¹
kon [8]: 350000 M⁻¹ s⁻¹
EC50 (read off the curve) [9]: ~1 nM

B15: 5T4-M1 (bispecific antibody)
chain 1: B12 chain 1 with G183D, S225T
chain 2: B12 chain 2
chain 3: not shown
notes: Three-chain diabody with Fc; also called 5T4 x CD3 mAb 1 M1 DART-B-type diabody
Kd [8]: 326 nM
koff [8]: 0.031 s⁻¹
kon [8]: 95000 M⁻¹ s⁻¹
EC50 (read off the curve) [9]: ~1 nM

Source: patent US20240043537A1 (MacroGenics, published 2024)
